Target: Rabbit skeletal muscle actin (rabbit, UniProt P68135 1-377)
Assay: MST; microscale thermophoresis of Ysc84-Nt with monomeric (G-) actin; conditions not shown (S1 File)
Conditions: both partners purified

B1: 6xHis tagged Ysc84-Nt (wild type, N-terminal YAB domain) (domain or fragment)
chain: MGINNPIPRSLKSETKKAAKVLRSFVKPNQVFGADQVIPPYVLKRAKGLAIITVLKAGFLFSGRAGSGVIVARLKDGTWSAPSAIAMAGAGAGGMVGVELTDFVFILNSEEAVRSFSEFGTITLGGNVSVSAGPLGRSAEAAASASTGGVSAVFAYSKSKGLFAGVSVEGSAILERREANRKFYGDNCTSKMILSGRVKVPPAADPLLRILESRAFNF
notes: The His tag was detected on this protein on PIP strips; no cleavage is described; also called Ysc84-Nt WT; wild-type Ysc84-Nt; source: E. coli BL21 DE3, purified (HisTrap HP nickel column)
Kd: 850 nM

Reference: PMC4552428, “Distinct Actin and Lipid Binding Sites in Ysc84 Are Required during Early Stages of Yeast Endocytosis” (PLoS ONE, 2015)
